Data published in EP1012281B1.

Assays:
[1] = molecular target: human lymph node derived calcium activated potassium channel polypeptide hKCa4, transiently expresse (human); assay: cell-based or functional assay
[2] = molecular target: cloned hKCa4 (SEQ ID NO:3) (human); assay: cell-based or functional assay

apamin (from UniProt P01500 28-45) (peptide)
Kd for block of KCa current, whole cell patch clamp [1]: > 1000 nM

kaliotoxin (from UniProt P24662 1-38) (peptide)
Kd for block of KCa current, whole cell patch clamp [1]: > 1000 nM

scyllatoxin (from UniProt P16341 1-31) (peptide)
Kd for block of KCa current, whole cell patch clamp [1]: > 1000 nM

iberiotoxin (from UniProt P24663 1-37) (peptide)
Kd for block of KCa current, whole cell patch clamp [1]: > 1000 nM

B1: charybdotoxin, P13487 23-59 (peptide)
peptide: QFTNVSCTTSKECWSVCQRLHNTSRGKCMNKKCRCYS
modifications: not checked
IC50 as peptide blocker of the channel [2]: 5 to 10 nM
